According to patent publication US20200255529A1 (PIONYR IMMUNOTHERAPEUTICS, published 2020):
Like-named read-outs stand apart in the source and are kept apart here.

T1: cynomolgus TREM1 on cells (cynomolgus, UniProt A0A2K5VHG8 21-233)
T1 construct: whole, on cells; Used for HEK293 cells over-expressing cynomolgus TREM1 and for primary cynomolgus monocytes; also called cynoTREM1; Cyno TREM1 cells
T1 sequence: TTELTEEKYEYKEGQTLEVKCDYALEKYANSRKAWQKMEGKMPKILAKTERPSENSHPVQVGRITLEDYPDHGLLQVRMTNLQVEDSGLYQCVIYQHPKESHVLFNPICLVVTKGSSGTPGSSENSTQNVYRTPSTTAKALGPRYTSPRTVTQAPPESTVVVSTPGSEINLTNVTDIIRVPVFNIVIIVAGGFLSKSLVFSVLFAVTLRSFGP

T2: Chimeric cynomolgus TREM1-mIgG Fc (cynomolgus, UniProt A0A2K5VHG8 21-204)
T2 construct: not shown: mouse IgG Fc
T2 sequence: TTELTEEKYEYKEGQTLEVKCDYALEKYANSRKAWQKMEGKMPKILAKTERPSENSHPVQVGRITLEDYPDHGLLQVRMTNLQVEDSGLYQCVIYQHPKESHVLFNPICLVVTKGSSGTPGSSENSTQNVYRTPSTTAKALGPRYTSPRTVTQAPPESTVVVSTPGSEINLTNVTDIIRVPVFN

T3: mouse TREM1 on HEK293 cells (mouse, UniProt Q9JKE2 21-230)
T3 construct: also called mTREM1; mouse TREM1 over-expressing cells
T3 sequence: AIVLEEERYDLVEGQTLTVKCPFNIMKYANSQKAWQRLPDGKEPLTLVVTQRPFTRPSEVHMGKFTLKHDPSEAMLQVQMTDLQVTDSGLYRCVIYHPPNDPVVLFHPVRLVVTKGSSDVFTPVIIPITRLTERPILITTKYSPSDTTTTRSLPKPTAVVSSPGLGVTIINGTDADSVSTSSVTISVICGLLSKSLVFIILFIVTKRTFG


Tests used:
[1] = biological target: T4, hCD16 on NFAT-luciferase reporter Jurkat cells (Promega) (human, UniProt P08637 17-254); assay: cell-based or functional assay
T4 sequence (P08637 17-254 F176V): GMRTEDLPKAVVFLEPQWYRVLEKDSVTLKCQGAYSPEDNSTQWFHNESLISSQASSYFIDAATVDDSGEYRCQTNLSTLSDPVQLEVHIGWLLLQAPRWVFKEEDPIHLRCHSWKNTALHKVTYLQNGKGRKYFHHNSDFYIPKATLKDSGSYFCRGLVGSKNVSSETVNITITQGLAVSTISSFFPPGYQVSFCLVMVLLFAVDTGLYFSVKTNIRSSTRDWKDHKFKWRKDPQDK

[2] = biological target: T1, cynomolgus TREM1 on cells; assay: flow cytometry on HEK293 cells over-expressing cynomolgus TREM1
[3] = biological target: T2, Chimeric cynomolgus TREM1-mIgG Fc; assay: SPR (Biacore T200), avid format: cynomolgus TREM1-mIgG Fc captured, antibody as analyte
Method: All data were collected at 25° C. 10 mM HEPES pH 7.4, 150 mM NaCl, 3 mM EDTA, 0.05% (v/V) surfactant P20 was used as mobile buffer and for all dilution of mAbs. Anti-mouse Fc was immobilized on a CM4 biosensor chip (GE Healthcare) using amine coupling chemistry. Chimeric cynomolgus TREM1-mIgG Fc was captured on one flow cell and another flow cell (used as reference surface) was left blank. […] After each cycle, the surface was regenerated by injecting a glycine HCl buffer (10 mM, pH 2.0). BIAevaluation software was used to perform the kinetic evaluation. Kinetic evaluation was through generation of sensorgrams which were fitted with a 1:1 Langmuir binding model.

[4] = biological target: T1, cynomolgus TREM1 on cells; assay: flow cytometry on HEK293 cells over-expressing cynomolgus TREM1; remark: listed apart in the source
[5] = biological target: T4, hCD16 on NFAT-luciferase reporter …; assay: cell-based or functional assay; remark: listed apart in the source
[6] = biological target: T3, mouse TREM1 on HEK293 cells; assay: flow cytometry on HEK293 cells over-expressing mouse TREM1, Alexa 647 anti-human Fcγ secondary antibody
Method: (§1) HEK293 over-expressing cynomolgus or mouse TREM1 in log phase growth were harvested from culture, washed, and plated in 96 well U bottom plates at 1×10⁵ cells/well. […] An Alexa 647-conjugated anti-human Fcγ secondary antibody (Jackson Immunoresearch) diluted at 1:500 was used to detect bound primary antibody. The secondary antibody was incubated with the cells for 30 mins on ice. […] Fluorescence signal from bound antibody was assessed by flow cytometry (ThermoFisher Attune NxT). EC50 values were calculated in Prism Software (Graphpad).

[7] = biological target: T2, Chimeric cynomolgus TREM1-mIgG Fc; assay: SPR (Biacore T200), avid format: cynomolgus TREM1-mIgG Fc captured, antibody as analyte; remark: listed apart in the source
[8] = biological target: T1, cynomolgus TREM1 on cells; assay: flow cytometry on cynomolgus peripheral blood monocytes, experiment 1
Method: (§2) Fresh cynomolgus monkey blood (Worldwide Primates Inc) was red cell lysed and washed to enrich PBMC and granulocyte content. Cells were plated and Fc receptors were blocked with a combination of human serum (Jackson Immunoresearch) and a peptide-based FcR block solution (Innovex Biosciences). […] All antibodies used were directly conjugated and data was acquired by flow cytometry (ThermoFisher Attune NxT). EC50 values were calculated in Prism Software (Graphpad).

[9] = biological target: T5, recombinant human His-tagged FcγRI (human, UniProt P12314 16-288); assay: ELISA on plates coated with 1 ug/ml His-tagged human FcγRI (CD64), detection with HRP-conjugated anti-human F(ab')2
T5 construct: also called hFcγRI; not shown: His tag
T5 sequence (P12314 16-288 limits assumed): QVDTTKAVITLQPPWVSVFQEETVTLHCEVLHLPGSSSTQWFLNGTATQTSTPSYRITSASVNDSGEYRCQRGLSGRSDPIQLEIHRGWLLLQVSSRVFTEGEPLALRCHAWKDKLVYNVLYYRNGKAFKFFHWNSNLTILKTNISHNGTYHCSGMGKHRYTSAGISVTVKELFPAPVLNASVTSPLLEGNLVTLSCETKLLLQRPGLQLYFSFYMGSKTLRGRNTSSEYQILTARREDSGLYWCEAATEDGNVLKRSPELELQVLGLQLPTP
Method: 1 ug/ml of the indicated recombinant human His-tagged FcγR proteins (Sino Biologicals) were coated on MaxiSorp plates overnight at 4° c. […] Fc-mediated binding of the antibodies to the coated FcγR proteins was detected with a HRP-conjugated Fab′2 fragment against the Fab′2 portion of human IgG (Jackson Immunoresearch). TMB substrate (ThermoFisher) was used to quantitate the amount of HRP-conjugated secondary reagent bound to primary antibodies and H₃PO₄ was used to stop the reaction. Absorbance at 450 nm was measured using the Spectramax plate reader ([…]).

[10] = biological target: T1, cynomolgus TREM1 on cells; assay: flow cytometry on cynomolgus peripheral blood monocytes, experiment 2
Method: as §2

[11] = biological target: T4, hCD16 on NFAT-luciferase reporter …; assay: cell-based or functional assay; remark: listed apart in the source
[12] = biological target: T1, cynomolgus TREM1 on cells; assay: flow cytometry on HEK293 cells over-expressing cynomolgus TREM1, experiment 3
Method: as §1, with “HEK293 cells” for “HEK293”, “cynomolgus” for “cynomolgus or mouse”

[13] = biological target: T1, cynomolgus TREM1 on cells; assay: flow cytometry on HEK293 cells over-expressing cynomolgus TREM1, experiment 1
Method: as §1, with “HEK293 cells” for “HEK293”, “cynomolgus” for “cynomolgus or mouse”

[14] = biological target: T1, cynomolgus TREM1 on cells; assay: flow cytometry on HEK293 cells over-expressing cynomolgus TREM1, experiment 2
Method: as §1, with “HEK293 cells” for “HEK293”, “cynomolgus” for “cynomolgus or mouse”

Binder | hCD16 ADCC assay EC50 [1] [nM] | EC50 [2] [nM] | Kd [3] [nM] | EC50 [4] [nM] | hCD16 ADCC assay EC50 [5] [nM] | binding result [6] | Kd [7] [nM] | EC50 [8] [nM] | binding result [9] | EC50 [10] [nM] | hCD16 reporter assay EC50 (nM), experiment 1 [11] [nM] | hCD16 reporter assay EC50 (nM), experiment 2 [11] [nM] | hCD16 reporter assay EC50 (nM), experiment 3 [11] [nM] | EC50 [12] [nM] | EC50 [13] [nM] | EC50 [14] [nM]
afucosylated PI-4026-5-M100 (parent) (antibody, human IgG1, kappa, afucosylated Fc glycan (made in FUT8-deficient expi293 cells)) heavy: not shown light: DIQLTQSPSSLSASVGDRVTITCSASSSVSYMHWYQQKPGKAPKLLLYTTSNLASGVPSRFSGSGSGTDYTLTISSLQPEDFATYYCHQWSGYPTFGQGTKLEIKRTVAAPSVFIFPPSDEQLKSGTASVVCLLNNFYPREAKVQWKVDNALQSGNSQESVTEQDSKDSTYSLSSTLTLSKADYEKHKVYACEVTHQGLSSPVTKSFNRGEC | 0.36 | 6.61 | 2.99 |  |  |  |  |  |  |  |  |  |  |  |  | 
PI-4026-5 (antibody, human IgG1, kappa, fucosylated form made in expi293 cells) heavy: not shown light: DIQLTQSPSSLSASVGDRVTITCSASSSVSYMHWYQQKPGKAPKLLLYTTSNLASGVPSRFSGSGSGTDYTLTISSLQPEDFATYYCHQWSGYPTFGQGTKLEIKRTVAAPSVFIFPPSDEQLKSGTASVVCLLNNFYPREAKVQWKVDNALQSGNSQESVTEQDSKDSTYSLSSTLTLSKADYEKHKVYACEVTHQGLSSPVTKSFNRGEC |  |  | 1.76 | 4.61 | 2.54 | no binding (tested: 6 ug/ml) |  |  |  |  |  |  |  |  |  | 
PI64062 (afucosylated PI-4026-5-M100Q) (antibody, human IgG1, kappa, afucosylated Fc glycan (made in FUT8-deficient expi293 cells)) heavy: not shown light: DIQLTQSPSSLSASVGDRVTITCSASSSVSYMHWYQQKPGKAPKLLLYTTSNLASGVPSRFSGSGSGTDYTLTISSLQPEDFATYYCHQWSGYPTFGQGTKLEIKRTVAAPSVFIFPPSDEQLKSGTASVVCLLNNFYPREAKVQWKVDNALQSGNSQESVTEQDSKDSTYSLSSTLTLSKADYEKHKVYACEVTHQGLSSPVTKSFNRGEC | 0.29 | 2.07 | 0.45 |  |  |  | 0.45 | 7.94 | binds | 7.84 | 0.08 | 0.29 | 0.09 | 7.89 | 2.07 | 3.25
PI64052 (afucosylated PI-4026-5-M100L) (antibody, human IgG1, kappa, afucosylated Fc glycan (made in FUT8-deficient expi293 cells)) heavy: not shown light: DIQLTQSPSSLSASVGDRVTITCSASSSVSYMHWYQQKPGKAPKLLLYTTSNLASGVPSRFSGSGSGTDYTLTISSLQPEDFATYYCHQWSGYPTFGQGTKLEIKRTVAAPSVFIFPPSDEQLKSGTASVVCLLNNFYPREAKVQWKVDNALQSGNSQESVTEQDSKDSTYSLSSTLTLSKADYEKHKVYACEVTHQGLSSPVTKSFNRGEC | 0.28 | 3.62 | 1.41 |  |  |  | 1.41 | 7.84 | binds | 7.16 | 0.09 | 0.28 | 0.11 | 42.8 | 3.62 | 4.67

The next lines start with the values.

hCD16 ADCC assay EC50 [1] [nM] | EC50 [2] [nM] | Kd [3] [nM] | EC50 [4] [nM] | hCD16 ADCC assay EC50 [5] [nM] | binding result [6] | Kd [7] [nM] | EC50 [8] [nM] | binding result [9] | EC50 [10] [nM] | hCD16 reporter assay EC50 (nM), experiment 1 [11] [nM] | hCD16 reporter assay EC50 (nM), experiment 2 [11] [nM] | hCD16 reporter assay EC50 (nM), experiment 3 [11] [nM] | EC50 [12] [nM] | EC50 [13] [nM] | EC50 [14] [nM] | Binder
0.39 | 22 | 13.4 |  |  |  |  |  |  |  |  |  |  |  |  |  | afucosylated PI-4026-5-M100I (antibody, human IgG1, kappa, afucosylated Fc glycan (made in FUT8-deficient expi293 cells)) heavy: not shown light: DIQLTQSPSSLSASVGDRVTITCSASSSVSYMHWYQQKPGKAPKLLLYTTSNLASGVPSRFSGSGSGTDYTLTISSLQPEDFATYYCHQWSGYPTFGQGTKLEIKRTVAAPSVFIFPPSDEQLKSGTASVVCLLNNFYPREAKVQWKVDNALQSGNSQESVTEQDSKDSTYSLSSTLTLSKADYEKHKVYACEVTHQGLSSPVTKSFNRGEC
 |  | 1.43 | 4.85 | 5.86 |  |  |  | binds |  |  |  |  |  |  |  | PI-4026-5-M100L (fucosylated) (antibody, human IgG1, kappa, hIgG1, fucosylated; also called fucosylated parent of PI64052) heavy: not shown light: DIQLTQSPSSLSASVGDRVTITCSASSSVSYMHWYQQKPGKAPKLLLYTTSNLASGVPSRFSGSGSGTDYTLTISSLQPEDFATYYCHQWSGYPTFGQGTKLEIKRTVAAPSVFIFPPSDEQLKSGTASVVCLLNNFYPREAKVQWKVDNALQSGNSQESVTEQDSKDSTYSLSSTLTLSKADYEKHKVYACEVTHQGLSSPVTKSFNRGEC
0.33 | 56 | 8.66 |  |  |  |  |  |  |  |  |  |  |  |  |  | afucosylated PI-4026-5-M100E (antibody, human IgG1, kappa, afucosylated Fc glycan (made in FUT8-deficient expi293 cells)) heavy: not shown light: DIQLTQSPSSLSASVGDRVTITCSASSSVSYMHWYQQKPGKAPKLLLYTTSNLASGVPSRFSGSGSGTDYTLTISSLQPEDFATYYCHQWSGYPTFGQGTKLEIKRTVAAPSVFIFPPSDEQLKSGTASVVCLLNNFYPREAKVQWKVDNALQSGNSQESVTEQDSKDSTYSLSSTLTLSKADYEKHKVYACEVTHQGLSSPVTKSFNRGEC
 |  | 0.66 | 6.04 | 8.6 |  |  |  | binds |  |  |  |  |  |  |  | PI-4026-5-M100Q (fucosylated) (antibody, human IgG1, kappa, hIgG1, fucosylated; also called fucosylated parent of PI64062) heavy: not shown light: DIQLTQSPSSLSASVGDRVTITCSASSSVSYMHWYQQKPGKAPKLLLYTTSNLASGVPSRFSGSGSGTDYTLTISSLQPEDFATYYCHQWSGYPTFGQGTKLEIKRTVAAPSVFIFPPSDEQLKSGTASVVCLLNNFYPREAKVQWKVDNALQSGNSQESVTEQDSKDSTYSLSSTLTLSKADYEKHKVYACEVTHQGLSSPVTKSFNRGEC
